In US20220411799, “DNMT1-Specific Aptamers and Production and Uses Thereof” (National University of Singapore, published 2022):
Positions count from the first letter of the chain named.

Tests used:
DNMT3A = DNMT3A (UniProt Q9Y6K1 Q9Y6K1:1-912); assay: BLI; specificity control
KAT5 = KAT5 (UniProt Q92993 Q92993:1-513); assay: BLI; specificity control; settings: label: 3'-biotin (ELONA, pulldown); hairpin
DNMT3B = DNMT3B (UniProt Q9UBC3 Q9UBC3:1-853); assay: BLI; specificity control
[1] = target: Human serum albumin (HSA) (Homo sapiens, UniProt P02768 P02768:25-609); assay: ELONA; no significant binding up to 750 nM; settings: label: 3'-biotin (ELONA, pulldown); hairpin
Chain of Human serum albumin (HSA) (P02768 25-609, one chain of several): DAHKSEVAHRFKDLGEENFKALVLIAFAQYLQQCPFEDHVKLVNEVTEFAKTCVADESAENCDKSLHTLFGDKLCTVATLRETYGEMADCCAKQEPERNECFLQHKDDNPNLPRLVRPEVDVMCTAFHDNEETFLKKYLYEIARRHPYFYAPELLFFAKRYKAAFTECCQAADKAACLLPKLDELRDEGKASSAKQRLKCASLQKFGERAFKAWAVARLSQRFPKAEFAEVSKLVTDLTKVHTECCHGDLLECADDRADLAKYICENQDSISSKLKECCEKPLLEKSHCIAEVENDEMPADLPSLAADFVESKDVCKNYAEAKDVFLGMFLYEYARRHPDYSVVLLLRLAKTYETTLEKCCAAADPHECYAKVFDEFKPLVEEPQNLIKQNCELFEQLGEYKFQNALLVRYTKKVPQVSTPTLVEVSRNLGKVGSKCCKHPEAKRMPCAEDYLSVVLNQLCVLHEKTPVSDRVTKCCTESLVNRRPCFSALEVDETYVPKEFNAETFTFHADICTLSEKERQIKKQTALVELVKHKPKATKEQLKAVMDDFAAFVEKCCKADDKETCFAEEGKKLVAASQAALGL
Experimental: (§1) Microtiter High Binding plate (Nunc MaxiSorp) wells were coated with 30 nM of His-tagged DNMT1 (Active Motif) or HSA overnight at 4° C. All subsequent steps were performed at room temperature. After incubation, the plate was washed once with PBS and then blocked each well with 300 μl 3% BSA (AppliChem) in PBS for 2 hours. After two washes, the plate was incubated with 100 μL of 3′-biotinylated aptamers dissolved in PBS for 2 hours. Next, the plate was washed three times and streptavidin-conjugated horseradish peroxidase (HRP) (Sigma Aldrich) was added (1:10000 dilution). After 1-hour incubation, the plate was washed four times and the 3,3′,5,5′-Tetramethylbenzidine (TMB) substrate solution was added. The reaction was stopped with sulfuric acid (H₂SO₄) 0,16 M, forming a yellow reaction product that was read with microplate Reader (Thermo Scientific) at 450 nm.
To check the aptamer specificity, the present disclosure monitored the binding of Ce-49 sh and Ce-10-2 sh to the human serum albumin (HSA), the most enriched plasma protein that can bind, in a nonspecific manner, nucleic acids through its positive charge, thus limiting their use. […] As shown, no significant aptamer binding was measured up to 750 nM concentration. Binding was instead detected when aptamers were incubated with DNMT1 protein (FIG. 7).

DNMT1 [2] = target: T1, DNMT1 (Homo sapiens, UniProt P26358 P26358:1-1616); assay: inhibition; in vitro DNMT1 inhibitor screening assay; settings: tags: His-tagged (Active Motif), full-length; GST-tagged version (Active Motif) used for SELEX; label: 3'-biotin (ELONA, pulldown); hairpin
T1 sequence (P26358 whole entry, one chain of several): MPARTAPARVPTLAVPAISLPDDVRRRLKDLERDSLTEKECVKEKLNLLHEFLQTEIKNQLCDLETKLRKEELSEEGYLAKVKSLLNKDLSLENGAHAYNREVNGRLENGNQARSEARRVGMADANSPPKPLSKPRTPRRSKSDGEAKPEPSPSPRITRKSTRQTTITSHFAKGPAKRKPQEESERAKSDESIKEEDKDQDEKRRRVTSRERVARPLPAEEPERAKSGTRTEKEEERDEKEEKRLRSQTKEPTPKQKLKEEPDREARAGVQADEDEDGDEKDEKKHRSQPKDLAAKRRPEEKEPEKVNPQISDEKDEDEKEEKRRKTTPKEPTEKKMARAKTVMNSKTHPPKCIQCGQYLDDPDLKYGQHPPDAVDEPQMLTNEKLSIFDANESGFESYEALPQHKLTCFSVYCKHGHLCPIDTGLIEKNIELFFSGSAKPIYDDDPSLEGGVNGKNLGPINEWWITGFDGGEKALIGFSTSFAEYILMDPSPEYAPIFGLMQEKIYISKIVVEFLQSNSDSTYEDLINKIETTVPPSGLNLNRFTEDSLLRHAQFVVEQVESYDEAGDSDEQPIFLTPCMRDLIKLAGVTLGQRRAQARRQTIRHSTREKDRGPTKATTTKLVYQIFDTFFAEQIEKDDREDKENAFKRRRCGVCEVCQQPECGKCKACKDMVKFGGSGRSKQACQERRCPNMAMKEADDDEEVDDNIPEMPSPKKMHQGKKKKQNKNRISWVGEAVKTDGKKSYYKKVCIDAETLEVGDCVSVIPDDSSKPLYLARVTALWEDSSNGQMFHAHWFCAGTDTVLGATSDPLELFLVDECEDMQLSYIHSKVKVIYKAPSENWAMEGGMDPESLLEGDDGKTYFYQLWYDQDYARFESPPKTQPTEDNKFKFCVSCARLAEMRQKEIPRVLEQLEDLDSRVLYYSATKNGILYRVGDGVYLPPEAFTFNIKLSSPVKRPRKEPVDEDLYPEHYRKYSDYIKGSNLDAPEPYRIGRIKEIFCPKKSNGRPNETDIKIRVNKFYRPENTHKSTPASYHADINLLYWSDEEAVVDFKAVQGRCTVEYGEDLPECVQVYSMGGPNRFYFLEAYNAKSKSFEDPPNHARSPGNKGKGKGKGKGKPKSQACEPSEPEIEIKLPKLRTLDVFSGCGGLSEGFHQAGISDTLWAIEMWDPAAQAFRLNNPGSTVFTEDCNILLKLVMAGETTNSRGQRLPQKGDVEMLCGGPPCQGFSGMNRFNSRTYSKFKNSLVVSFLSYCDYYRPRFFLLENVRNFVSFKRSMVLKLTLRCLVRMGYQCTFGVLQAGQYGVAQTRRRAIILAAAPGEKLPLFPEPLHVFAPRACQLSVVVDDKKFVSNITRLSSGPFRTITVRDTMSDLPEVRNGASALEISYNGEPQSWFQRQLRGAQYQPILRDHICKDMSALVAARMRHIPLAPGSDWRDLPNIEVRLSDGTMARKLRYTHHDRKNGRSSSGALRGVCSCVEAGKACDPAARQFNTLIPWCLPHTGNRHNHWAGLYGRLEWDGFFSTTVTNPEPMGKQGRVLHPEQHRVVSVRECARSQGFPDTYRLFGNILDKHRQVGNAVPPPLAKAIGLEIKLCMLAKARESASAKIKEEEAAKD
Experimental: FIG. 5. Functional activity of the aptamers. (a) Activity of purified DNMT1 protein was analyzed in vitro by DNMT1 inhibitor screening assay in the absence (“-”) or in the presence of indicated aptamers. Results are expressed as percentage relative to the activity of DNMT1 protein alone; b. DNMT1 inhibitor screening assay performed with K-562 nuclear extracts from untreated cells (NT), treated with a sequence unable to bind DNMT1 (control) or transfected with the respective aptamers Ce-10-2 sh and Ce-49 sh. Results are expressed as percentage relative to the activity detected in NT sample; c. expression levels 72 hours upon aptamers transfection; d, e. Cell viability of CML K562 cells (d) or NSCLC Calu-1 and A549 cells (e) transfected with indicated aptamers or Cont. for 72 hours. In (a-d) Error bars depict mean±s.d.; R5-F: R5 sequence modified with 2′F-Py.
As next step, the present disclosure tested aptamer ability to inhibit DNMT1-mediated methylation. As first attempt, the present disclosure performed an in vitro DNMT1 inhibitor screening assay. The activity of DNMT1 purified protein was measured in the absence or in the presence of R5-F or the selected short sequences. […] The functional effects of the best binders (Ce-49 sh and Ce-10-2 sh) was further characterized monitoring the in vivo DNMT1 activity by using cell nuclear extracts from chronic K562 CML cells transfected with the aptamers (FIG. 5b).

DNMT1 [3] = target: T1, DNMT1; assay: BLI; BLItz, mutR5 background subtracted; settings: tags: His-tagged (Active Motif), full-length; GST-tagged version (Active Motif) used for SELEX; label: 3'-biotin (ELONA, pulldown); hairpin
From the text: FIG. 4. Affinity and in vivo binding of DNMT1-specific aptamers. a. Analysis of Ce-49 sh and Ce-10 sh binding affinity to DNMT1 assessed by the Blitz system (ForteBIO). The background values obtained with mutR5 used as a negative control were subtracted from the values obtained with the aptamers; REMSA showing stronger Ce-49 sh and Ce-10 sh binding ability to DNMT1 than two alternative secondary structures of the original R5F (R5modified with 2′F-Py). Unrelated RNA and DNA are two […] controls. R01(unable to form stem-loop-like structures) is used as negative control; c. Increasing amount of Ce-49 sh and Ce-10 sh biotinylated aptamers were incubated in the presence or absence of HSA purified protein. No significant difference was detected between the blank control and the aptamers by ELONA. Error bars depict mean±s.d.; d. Aptamer-mediated pull-down. Protein extract from K562 cells were incubated with the biotinylated R5-F, Ce-49 sh and Ce-10-2 sh. Bound proteins were purified on streptavidin beads and immunoblotted with anti-DNMT1 antibodies.
Next, aptamer affinity to DNMT1 was assessed by the Blitz system (ForteBIO).

DNMT1 [4] = target: T1, DNMT1; assay: BLI; 100 nM to 2 uM; R2=0.9017; p159 states Kd not measurable; settings: tags: His-tagged (Active Motif), full-length; GST-tagged version (Active Motif) used for SELEX; label: 3'-biotin (ELONA, pulldown); hairpin
Experimental: Dose-response binding analyses were also performed with the 2′F-pyrimidine modified R5 (indicated as DNMT1-bait) at concentrations ranging between 100 nM and 2 μM, since no binding was detected at lower concentrations (FIG. 8a). In accordance with previous findings, no binding was detected for the mutR5 sequence which is unable to fold in stem-loop-like structures and used as a negative control (FIG. 8b).

DNMT1 [5] = target: T1, DNMT1; assay: inhibition; all short sequences stated; settings: tags: His-tagged (Active Motif), full-length; GST-tagged version (Active Motif) used for SELEX; label: 3'-biotin; hairpin
DNMT1 [6] = target: T1, DNMT1; assay: ELONA; 200 nM aptamer; settings: tags: His-tagged (Active Motif), full-length; GST-tagged version (Active Motif) used for SELEX; label: 5'-biotin; hairpin
Experimental: as §1
The present disclosure identified three clusters of sequences with two aptamers (Ce-9 and Ce-10) representing the most enriched ones (FIG. 2a). These two aptamers present two mismatches among them and both had three mutation points compared to R5 (FIG. 2b). These sequences, together with Ce-49 that comes from a different cluster, were tested for the binding to DNMT1 purified protein by ELONA at 200 nM concentration.

Chain of KAT5 (Q92993 whole entry, one chain of several): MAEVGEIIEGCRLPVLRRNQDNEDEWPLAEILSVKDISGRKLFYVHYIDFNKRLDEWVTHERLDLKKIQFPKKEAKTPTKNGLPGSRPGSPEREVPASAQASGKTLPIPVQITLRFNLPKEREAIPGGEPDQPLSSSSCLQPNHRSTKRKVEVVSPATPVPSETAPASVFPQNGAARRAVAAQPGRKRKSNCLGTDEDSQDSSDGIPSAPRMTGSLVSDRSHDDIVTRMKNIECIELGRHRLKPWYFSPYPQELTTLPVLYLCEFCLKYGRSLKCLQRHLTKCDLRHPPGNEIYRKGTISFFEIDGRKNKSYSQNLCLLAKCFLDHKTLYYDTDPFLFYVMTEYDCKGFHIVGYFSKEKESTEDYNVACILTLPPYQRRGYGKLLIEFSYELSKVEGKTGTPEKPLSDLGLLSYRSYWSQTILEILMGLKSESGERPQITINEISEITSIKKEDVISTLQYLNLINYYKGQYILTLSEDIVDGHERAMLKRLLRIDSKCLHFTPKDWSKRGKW
Chain of DNMT3A (Q9Y6K1 whole entry, one chain of several): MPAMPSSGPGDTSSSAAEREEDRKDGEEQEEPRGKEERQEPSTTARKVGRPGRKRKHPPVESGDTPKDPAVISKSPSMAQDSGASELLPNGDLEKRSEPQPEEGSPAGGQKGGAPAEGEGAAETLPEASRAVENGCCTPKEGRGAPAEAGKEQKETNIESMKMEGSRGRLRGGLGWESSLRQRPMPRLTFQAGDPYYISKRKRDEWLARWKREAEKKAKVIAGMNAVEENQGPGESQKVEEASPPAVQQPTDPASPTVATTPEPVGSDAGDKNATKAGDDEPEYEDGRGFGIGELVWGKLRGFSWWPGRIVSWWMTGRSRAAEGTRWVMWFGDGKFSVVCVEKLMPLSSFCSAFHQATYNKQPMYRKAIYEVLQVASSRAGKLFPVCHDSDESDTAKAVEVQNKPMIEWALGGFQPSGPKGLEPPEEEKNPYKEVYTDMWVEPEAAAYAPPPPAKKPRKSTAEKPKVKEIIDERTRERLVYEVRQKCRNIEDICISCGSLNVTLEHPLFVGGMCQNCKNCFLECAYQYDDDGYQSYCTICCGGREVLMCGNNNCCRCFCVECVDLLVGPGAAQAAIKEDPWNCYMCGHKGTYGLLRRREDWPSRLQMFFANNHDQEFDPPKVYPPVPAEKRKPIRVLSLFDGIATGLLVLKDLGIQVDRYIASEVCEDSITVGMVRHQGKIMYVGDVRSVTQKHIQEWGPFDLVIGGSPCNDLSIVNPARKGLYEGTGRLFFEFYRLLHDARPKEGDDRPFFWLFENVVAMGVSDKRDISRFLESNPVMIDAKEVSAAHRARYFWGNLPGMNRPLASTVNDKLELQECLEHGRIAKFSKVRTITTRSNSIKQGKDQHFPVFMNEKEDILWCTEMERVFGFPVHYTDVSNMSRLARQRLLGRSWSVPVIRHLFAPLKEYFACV

UUACUGGGCUGAGGUAAUGGCGAGG (ssRNA, 2'-F pyrimidines) [Ce-10-2 sh]
binding result (DNMT3A): no binding | binding result (KAT5): no binding | binding result (DNMT3B): no binding | binding result [1]: no binding | activity (DNMT1 [2]): ~40 % inhibition | Kd (DNMT1 [3]): ~66 nM

CUGAGGCCUUGGCGAGGCUUCU (ssRNA, 2'-F pyrimidines) [R5-F (DNMT1 bait)]
binding result (DNMT3A): no binding | binding result (KAT5): no binding | binding result (DNMT3B): no binding | Kd (DNMT1 [4]): 600 nM | activity (DNMT1 [2]): ~40 % inhibition

CUGAGGCCUAACGAAGGCUUCU (ssRNA, 2'-F pyrimidines) [Ce-49 sh]
binding result (DNMT3A): no binding | binding result (KAT5): no binding | binding result (DNMT3B): no binding | binding result [1]: no binding | activity (DNMT1 [2]): ~40 % inhibition | Kd (DNMT1 [3]): ~79 nM

UGGGCUGAGCUCAUGGCGAGGCUUC (ssRNA, 2'-F pyrimidines) [Ce-9 sh]
activity (DNMT1 [5]): ~40 % inhibition

AGGUAAUGGCGAGGCUUCUUAUCUG (ssRNA, 2'-F pyrimidines) [Ce-10-1 sh]
activity (DNMT1 [5]): ~40 % inhibition

CUGAGGUAAUGGCGAGGCUUCU (ssRNA, 2'-F pyrimidines (listed with T in the sequence, described as RNA)) [Ce-10-R5]
activity (DNMT1 [5]): ~40 % inhibition

B1: Ce-49 (long, 61-mer) (ssRNA)
RNA: GGGCUGAAGGGGUUACUGGGCUGAGGCCUAACGAAGGCUUCUUAUCUGCCCCGGGGAGGAG
modifications: 2'-F pyrimidines
binding result (DNMT1 [6]): binds

B2: Ce-9 (long, 61-mer) (ssRNA)
RNA: GGGCUGAAGGGGUUACUGGGCUGAGCUCAUGGCGAGGCUUCUUAUCUGCCCCGGGGAGGAG
modifications: 2'-F pyrimidines
binding result (DNMT1 [6]): binds

B3: Ce-10 (long, 61-mer) (ssRNA)
RNA: B2 RNA with C26G, C28A
modifications: 2'-F pyrimidines
binding result (DNMT1 [6]): binds
